Assay results taken from the supplement of paper PMC10567573.

B1: OAS1 (parent)
chain: LTVYAWERGSMKTHFNTAQGFRTV
B2: ATE1 (parent)
chain: YGSFHQQYWLDGKIIAVGVIDILP

Variants of: B1
Assay: protein stability index of a GFP-peptide fusion (GPS, HEK-293T) (PSI 1-6); higher = more stable
Conditions: c terminus: a fixed tail appended
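Also: lentivirally expressed fusions sorted by FACS into six bins by GFP to DsRed ratio, PSI derived from sequencing read proportions per bin multiplied by bin number.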

Variant	protein stability index
LTVYAWERGSMKTHFNTAQGFETV [R22E]	2.82
LTVYAWERGSMKTHFNTAQGFPTV [R22P]	3.8
LTVYAWERGSMKTHFNTAQGFYTV [R22Y]	3.17
LTVYAWERGSMKTHFNTAQGFFTV [R22F]	1.87
LTVYAWERGSMKTHFNTAQGFHTV [R22H]	3.33
LTVYAWERGSMKTHFNTAQGFDTV [R22D]	2.38
LTVYAWERGSMKTHFNTAQGFKTV [R22K]	1.71
LTVYAWERGSMKTHFNTAQGFNTV [R22N]	2.38
LTVYAWERGSMKTHFNTAQGFTTV [R22T]	2.44
LTVYAWERGSMKTHFNTAQGFLTV [R22L]	3.28
LTVYAWERGSMKTHFNTAQGFWTV [R22W]	1.93
LTVYAWERGSMKTHFNTAQGFATV [R22A]	3.1
LTVYAWERGSMKTHFNTAQGFVTV [R22V]	2.33
LTVYAWERGSMKTHFNTAQGFMTV [R22M]	2.53
LTVYAWERGSMKTHFNTAQGFITV [R22I]	1.73
LTVYAWERGSMKTHFNTAQGFGTV [R22G]	1.45
LTVYAWERGSMKTHFNTAQGFRTG [V24G]	1.73
LTVYAWERGSMKTHFNTAQGFRTL [V24L]	1.68
LTVYAWERGSMKTHFNTAQGFRTY [V24Y]	2.51
LTVYAWERGSMKTHFNTAQGFRTT [V24T]	1.8
LTVYAWERGSMKTHFNTAQGFRTS [V24S]	3.01
LTVYAWERGSMKTHFNTAQGFRTP [V24P]	2.64
LTVYAWERGSMKTHFNTAQGFRTE [V24E]	2.51
LTVYAWERGSMKTHFNTAQGFRTA [V24A]	2.04
LTVYAWERGSMKTHFNTAQGFRTH [V24H]	1.61

Variant	protein stability index
LTVYAWERGSMKTHFNTAQGFRTM [V24M]	1.96
LTVYAWERGSMKTHFNTAQGFRTC [V24C]	2.83
LTVYAWERGSMKTHFNTAQGFRTN [V24N]	2.84
LTVYAWERGSMKTHFNTAQGFRTQ [V24Q]	2.06
LTVYAWERGSMKTHFNTAQGFRTF [V24F]	2.35
LTVYAWERGSMKTHFNTAQGFRTI [V24I]	3.42
LTVYAWERGSMKTHFNTAQGFRTR [V24R]	1.69
LTVYAWERGSMKTHFNTAQGFRTK [V24K]	1.71
LTVYAWERGSMKTHFNTAQGFRTD [V24D]	1.63
LTVYAWERGSMKTHFNTAQGFRAV [T23A]	1.8
LTVYAWERGSMKTHFNTAQGFRIV [T23I]	2.69
LTVYAWERGSMKTHFNTAQGFRDV [T23D]	3.86
LTVYAWERGSMKTHFNTAQGFRLV [T23L]	2.25
LTVYAWERGSMKTHFNTAQGFRKV [T23K]	2.39
LTVYAWERGSMKTHFNTAQGFRSV [T23S]	2.78
LTVYAWERGSMKTHFNTAQGFRPV [T23P]	2.61
LTVYAWERGSMKTHFNTAQGFRMV [T23M]	3.15
LTVYAWERGSMKTHFNTAQGFRRV [T23R]	1.4
LTVYAWERGSMKTHFNTAQGFRQV [T23Q]	1.9
LTVYAWERGSMKTHFNTAQGFRNV [T23N]	3.21
LTVYAWERGSMKTHFNTAQGFRGV [T23G]	2.76
LTVYAWERGSMKTHFNTAQGFRYV [T23Y]	1.32
LTVYAWERGSMKTHFNTAQGFRHV [T23H]	3.17
LTVYAWERGSMKTHFNTAQGFRFV [T23F]	2.29

Variants of: B2
Assay: as above
Conditions: c terminus: a fixed tail appended

Variant	protein stability index
YGSFFQQYWLDGKIIAVGVIDILP [H5F]	2.61
YGSFAQQYWLDGKIIAVGVIDILP [H5A]	2.77
YGSFIQQYWLDGKIIAVGVIDILP [H5I]	1.49
YGSFQQQYWLDGKIIAVGVIDILP [H5Q]	2.37
YGSFRQQYWLDGKIIAVGVIDILP [H5R]	2.13
YGSFDQQYWLDGKIIAVGVIDILP [H5D]	4.47
YGSFPQQYWLDGKIIAVGVIDILP [H5P]	2.32
YGSFYQQYWLDGKIIAVGVIDILP [H5Y]	3.26
YGSFMQQYWLDGKIIAVGVIDILP [H5M]	1.77
YGSFHQQYWLHGKIIAVGVIDILP [D11H]	2.8
YGSFHQQYWLSGKIIAVGVIDILP [D11S]	2.47
YGSFHQQYWLIGKIIAVGVIDILP [D11I]	2.1
YGSFHQQYWLAGKIIAVGVIDILP [D11A]	4.43
YGSFHQQYWLFGKIIAVGVIDILP [D11F]	3.33
YGSFHQQYWLTGKIIAVGVIDILP [D11T]	3.15
YGSFHQQYWLNGKIIAVGVIDILP [D11N]	3.47
YGSFHQQYWLVGKIIAVGVIDILP [D11V]	2.38
YGSFHQQYWLWGKIIAVGVIDILP [D11W]	2.72
YGSFHQQYWLKGKIIAVGVIDILP [D11K]	3.39
YGSFHQQYWLPGKIIAVGVIDILP [D11P]	2.24
YGSFHQQYWLGGKIIAVGVIDILP [D11G]	1.06
YGSFHFQYWLDGKIIAVGVIDILP [Q6F]	2.94
YGSFHNQYWLDGKIIAVGVIDILP [Q6N]	3.97
YGSFHGQYWLDGKIIAVGVIDILP [Q6G]	2.41

Variant	protein stability index
YGSFHDQYWLDGKIIAVGVIDILP [Q6D]	2.55
YGSFHAQYWLDGKIIAVGVIDILP [Q6A]	3.19
YGSFHKQYWLDGKIIAVGVIDILP [Q6K]	3.09
YGSFHSQYWLDGKIIAVGVIDILP [Q6S]	2.86
YGSFHWQYWLDGKIIAVGVIDILP [Q6W]	1.19
YGSFHHQYWLDGKIIAVGVIDILP [Q6H]	2.7
YGSFHYQYWLDGKIIAVGVIDILP [Q6Y]	2.43
YGSFHTQYWLDGKIIAVGVIDILP [Q6T]	3.63
YGSFHRQYWLDGKIIAVGVIDILP [Q6R]	3.54
YGSFHIQYWLDGKIIAVGVIDILP [Q6I]	3.08
YGYFHQQYWLDGKIIAVGVIDILP [S3Y]	2.74
YGWFHQQYWLDGKIIAVGVIDILP [S3W]	2.82
YGPFHQQYWLDGKIIAVGVIDILP [S3P]	2.19
YGKFHQQYWLDGKIIAVGVIDILP [S3K]	2.55
YGHFHQQYWLDGKIIAVGVIDILP [S3H]	2.96
YGTFHQQYWLDGKIIAVGVIDILP [S3T]	2.22
YGRFHQQYWLDGKIIAVGVIDILP [S3R]	2.02
YGEFHQQYWLDGKIIAVGVIDILP [S3E]	1.34
YGVFHQQYWLDGKIIAVGVIDILP [S3V]	3.33
YGDFHQQYWLDGKIIAVGVIDILP [S3D]	4.93
YGIFHQQYWLDGKIIAVGVIDILP [S3I]	3.48
NGSFHQQYWLDGKIIAVGVIDILP [Y1N]	1.77
LGSFHQQYWLDGKIIAVGVIDILP [Y1L]	1.73
EGSFHQQYWLDGKIIAVGVIDILP [Y1E]	1.92

Variant	protein stability index
CGSFHQQYWLDGKIIAVGVIDILP [Y1C]	3.63
MGSFHQQYWLDGKIIAVGVIDILP [Y1M]	1.87
HGSFHQQYWLDGKIIAVGVIDILP [Y1H]	2.79
FGSFHQQYWLDGKIIAVGVIDILP [Y1F]	3.22
SGSFHQQYWLDGKIIAVGVIDILP [Y1S]	4.07
KGSFHQQYWLDGKIIAVGVIDILP [Y1K]	3.54
YGSFHQQYWLDDKIIAVGVIDILP [G12D]	2.68
YGSFHQQYWLDAKIIAVGVIDILP [G12A]	2.54
YGSFHQQYWLDCKIIAVGVIDILP [G12C]	2.02
YGSFHQHYWLDGKIIAVGVIDILP [Q7H]	2.4
YGSFHQTYWLDGKIIAVGVIDILP [Q7T]	3.51
YGSFHQLYWLDGKIIAVGVIDILP [Q7L]	2.01
YGSFHQRYWLDGKIIAVGVIDILP [Q7R]	2.99
YGSFHQFYWLDGKIIAVGVIDILP [Q7F]	2.02
YGSFHQDYWLDGKIIAVGVIDILP [Q7D]	2.72
YGSFHQGYWLDGKIIAVGVIDILP [Q7G]	3.84
YGSFHQWYWLDGKIIAVGVIDILP [Q7W]	4.02
YGSFHQAYWLDGKIIAVGVIDILP [Q7A]	4.84
YGSFHQCYWLDGKIIAVGVIDILP [Q7C]	3.33
YGSFHQMYWLDGKIIAVGVIDILP [Q7M]	1.76
YGSFHQPYWLDGKIIAVGVIDILP [Q7P]	2.94
YGSFHQSYWLDGKIIAVGVIDILP [Q7S]	4.74
YGSFHQIYWLDGKIIAVGVIDILP [Q7I]	2.67
YGSFHQQYWRDGKIIAVGVIDILP [L10R]	2.32

Variant	protein stability index
YGSFHQQYWDDGKIIAVGVIDILP [L10D]	2.64
YGSFHQQYWWDGKIIAVGVIDILP [L10W]	2.66
YGSFHQQYWKDGKIIAVGVIDILP [L10K]	3.17
YGSFHQQYWVDGKIIAVGVIDILP [L10V]	3.17
YGSFHQQYWNDGKIIAVGVIDILP [L10N]	3.14
YGSFHQQYWPDGKIIAVGVIDILP [L10P]	3.12
YGSFHQQYWEDGKIIAVGVIDILP [L10E]	2.75
YGSFHQQYWCDGKIIAVGVIDILP [L10C]	2.9
YGSFHQQYWTDGKIIAVGVIDILP [L10T]	1.74
YGSFHQQYWSDGKIIAVGVIDILP [L10S]	3.74
YGSFHQQYWIDGKIIAVGVIDILP [L10I]	3.3
YGSFHQQYWMDGKIIAVGVIDILP [L10M]	2.16
YGSFHQQYWHDGKIIAVGVIDILP [L10H]	2.42
YGSFHQQYWYDGKIIAVGVIDILP [L10Y]	1.97
YGSFHQQYWQDGKIIAVGVIDILP [L10Q]	3.96
YGSFHQQPWLDGKIIAVGVIDILP [Y8P]	2.93
YGSFHQQIWLDGKIIAVGVIDILP [Y8I]	3.92
YGSFHQQKWLDGKIIAVGVIDILP [Y8K]	2.35
YGSFHQQQWLDGKIIAVGVIDILP [Y8Q]	3.04
YGSFHQQDWLDGKIIAVGVIDILP [Y8D]	2.78
YGSFHQQWWLDGKIIAVGVIDILP [Y8W]	2.58
YGSFHQQFWLDGKIIAVGVIDILP [Y8F]	3.62
YGSFHQQHWLDGKIIAVGVIDILP [Y8H]	2.57
YGSFHQQNWLDGKIIAVGVIDILP [Y8N]	3.57

Variant	protein stability index
YQSFHQQYWLDGKIIAVGVIDILP [G2Q]	2.66
YSSFHQQYWLDGKIIAVGVIDILP [G2S]	1.91
YCSFHQQYWLDGKIIAVGVIDILP [G2C]	2.8
YMSFHQQYWLDGKIIAVGVIDILP [G2M]	2.57
YESFHQQYWLDGKIIAVGVIDILP [G2E]	2.72
YYSFHQQYWLDGKIIAVGVIDILP [G2Y]	3.14
YPSFHQQYWLDGKIIAVGVIDILP [G2P]	3.53
YRSFHQQYWLDGKIIAVGVIDILP [G2R]	3.47
YNSFHQQYWLDGKIIAVGVIDILP [G2N]	4.75
YHSFHQQYWLDGKIIAVGVIDILP [G2H]	2.47
YLSFHQQYWLDGKIIAVGVIDILP [G2L]	1.66
YDSFHQQYWLDGKIIAVGVIDILP [G2D]	2.58
YISFHQQYWLDGKIIAVGVIDILP [G2I]	3.05
YTSFHQQYWLDGKIIAVGVIDILP [G2T]	4.66
YKSFHQQYWLDGKIIAVGVIDILP [G2K]	2.49
YGSFHQQYILDGKIIAVGVIDILP [W9I]	3.29
YGSFHQQYELDGKIIAVGVIDILP [W9E]	2.26
YGSFHQQYHLDGKIIAVGVIDILP [W9H]	3.06
YGSFHQQYRLDGKIIAVGVIDILP [W9R]	3.46
YGSFHQQYVLDGKIIAVGVIDILP [W9V]	3.47
YGSFHQQYPLDGKIIAVGVIDILP [W9P]	3.09
YGSFHQQYKLDGKIIAVGVIDILP [W9K]	3.09
YGSFHQQYCLDGKIIAVGVIDILP [W9C]	2.17
YGSFHQQYALDGKIIAVGVIDILP [W9A]	2.18

Variant	protein stability index
YGSFHQQYSLDGKIIAVGVIDILP [W9S]	2.48
YGSFHQQYLLDGKIIAVGVIDILP [W9L]	3.27
YGSFHQQYMLDGKIIAVGVIDILP [W9M]	1.98
YGSFHQQYNLDGKIIAVGVIDILP [W9N]	1.9
YGSFHQQYYLDGKIIAVGVIDILP [W9Y]	2.97
YGSFHQQYQLDGKIIAVGVIDILP [W9Q]	1.69
YGSFHQQYDLDGKIIAVGVIDILP [W9D]	2.53
YGSHHQQYWLDGKIIAVGVIDILP [F4H]	2.83
YGSMHQQYWLDGKIIAVGVIDILP [F4M]	2.76
YGSNHQQYWLDGKIIAVGVIDILP [F4N]	3.28
YGSPHQQYWLDGKIIAVGVIDILP [F4P]	1.93
YGSVHQQYWLDGKIIAVGVIDILP [F4V]	1.4
YGSSHQQYWLDGKIIAVGVIDILP [F4S]	3.69
YGSYHQQYWLDGKIIAVGVIDILP [F4Y]	4.54
YGSWHQQYWLDGKIIAVGVIDILP [F4W]	2.2
YGSQHQQYWLDGKIIAVGVIDILP [F4Q]	2.72
YGSEHQQYWLDGKIIAVGVIDILP [F4E]	3.75
YGSDHQQYWLDGKIIAVGVIDILP [F4D]	2.95
YGSIHQQYWLDGKIIAVGVIDILP [F4I]	2.92
